Assay results from the DeepSol protein solubility set.

Assay: soluble on expression in E. coli; label from the status in PepcDB or PDB records

| Sequence | soluble on expression in E. coli |
| --- | --- |
| MGSDKIHHHHHHMGREIFNRRLPDNYNDFSHSMDNAANGHYFLRVASSNYKRPDGKNVRTVRDVIAEVDQNGVVVDEWRLFDILDPYRDVIMKTLDQGAVCLNIDASQSGHTLSEEDLAALDSSDKFGDIVGSGAGRNWAHVNSVDYDSEDDSIIISSRHQSAIIKIGRDKKVKWILGTPAGWKAPFNAAILTPVDSKGQKIACQDSGCEGDFDWTWTQHTAFKIDSKSKGDILYLSAFDNGDGRGLEQPAMQSMKYSRSVIYKIDQKNKTVQQIWQYGKERGNEWFSPVTSITEYQTDKNSVFVYSATAGGAFDLSVGAFTSLPNPYLEEFKWGEKEPAVEMQIHGARGYQAMPFSLTKALTE | not soluble |
| MAHHHHHHMSFKPKIIVCSSPAELSGVACKKIVDIIHASERTNWPLSIALSGGSTPKMLYSRLHEEHLHLLKEERALRFFFGDERLVPADAAESNYNMARQALLHDIPEDLVVPVDVGCVGEVSNVACNDAVKAADAYEKRIDLLLGTQKVEGMEAEIPVFDIVLLGLGSDGHTASIFHGSQAESEMHRAVSVGFPSPTMSPKVWRVTLTPITIIHARHVILLATGKEKKCVLNGIIADTPTEVPVSRFLRNCKGDVTFILDREIAENLTC | soluble |
| MGSDKIHHHHHHMPALAHRRSDIASGTRTTALTDHRFRGRITSFTRQVPKLMNKQQGNTPVHIWRVDFEGMEMRTTSSDGIHVWIARDDVMEALQIPDPGYALSFVTPEDQAALSSGTDVPDEEDEPDGLPMINEIAVYEIMARFPTPPTGRFKPWLLRLRHLFFELMTRDDEATFLLQ | not soluble |
| MNTTANPSNIIVGLSGGVDSSVTAALLKQQGYQVRGVFMQNWEDDDNDEYCSIKQDSFDAIAVADIIGIDIDIVNFAAQYKDKVFAYFLQEYSAGRTPNPDVLCNAEIKFKCFLDYAVGQGADTIATGHYARKEVRNGVHYLLKGLDRNKDQSYFLYRLKPFQLERAIFPLGGLEKPEVRRLAAEFKLPTAAKKDSTGICFIGERPFREFLQKYLPTDNGKMVTPEGKTVGEHVGLMFYTLGQRKGLGIGGAGEPWFVAAKDLTKNELIVVQGHDHPLLYTRSLVMNDLSFTLPERPKAGRYTCKTRYRMADAPCELRYLDDETAELVFDEPQWAVTPGQSAVLYDGDICLGGGIIQTTDKPVIITR | not soluble |
| MGSDKIHHHHHHMKIDRLIGIITILLQKERATIPQLAERFEVSCRTIQRDIDAIGQAGIPIVSRQGYGGGLSIADGYKLDKTVLTKKELQAILTGIRSIDSISKTTYGQTLIEKFANGKAAVLAEQDMILIDLASWYQDSLSDKIEQLRQAIFNREKVFFVYYSDKGESERLIEPYLILFKWAAWYVYGYCLTKNEYRLFKLNRLWKLKNTNLTYIPRNIPEGKLEFERYFQTEEIRLTALFDARAKYRLIEEYGPECFTVSEPDKLLFQRSFSNPEYLLQWLLSFGDRVRVIEPPELKANIQEHAKNMLRQDD | not soluble |
| YHSTDGDTILVGKNNKQNDYLTNKKARKNHLWFHTKDIPGSHVVILNESPSETTIKEAAMLAGYFSKAGSSAQIPVDYTEIRHVHK | not soluble |
| MARNAEKAMTALARWRRMKEEEERGPIARRPHDVKDCRNLSDAERFRREIVRDASKKITAIQNPGLGEFKLRDLNDEVNRLIKLKHAWEQRIRELGGTDYRKYAQKELDAIGRETGNSRGYKYFGAAKDLPGVRELFEKSTEGEEQRRHRADLLRNIDAHYFGYLDDEDGRLIPLEKLIEEKNIERINKEFAEKQAQKQQTASDAAPENIYKVEEDDDDDLETQESTVIGEDGRPMTIRHVLLPTQQDIEEMLLEQKKQELMAKYLD | not soluble |
| MGSDKIHHHHHHMSEEKNTAIDLKNLKAGGFIKERGKDLFTVRLRVPGGRLPVGRLKKIAEVAEKYGQGMVHLSVRQSVELININFRDFDAVVAELGEGTQKVASCGARVRVPTACGGCEYNPNGLVDTQKSALEVDEKLFGIPTGHHKFKVGFAGCPFDCPKSATNDVGFQGAVWPVLSADHCIGCGLCAKSCTEDAIAMGDNGKPLFIPANCLYCGDCLKVCPTEAWRAGKKGYTVRIGGKWGRRPLVGTLFAEFLPEDQVVDFIAAVLGWYQEKAEGQGRIRLGDVIRAQGPEALLARLRERFPAFVVNATIAPQAIATQVGKEKQAHDNR | not soluble |
| MAHHHHHHMIFVERQTDTENAAYLLAKMLGIHIRNIGMIHGGMQQRQRDYIMNGFKHSQTRILVATDVASRGIDFPDVTCVVNFIAPKSIDRYCHRIGRTGRAGRTGDSFTFIGHSDGCLAKDLVGYLKKCGMEVPQKLLDIAGKYVQYEEQRHLRRSWSGRSGRGFKRQKQDSPAPYQSSSW | not soluble |
| MGSDKIHHHHHHMELRVGGAKPSDNSPAASKGFSDPLDSHGVPGRSKQYLIHSAFTGTIGGVAMAYVDWAIKGPKIASCSCDYGCPCEFNGKPTEGLCEGLECMLIEEGWFGDLRLDGLKVAAVYRWPGPVHEGGGVVRGFFDANADQAQIDALFTILGGKEQEPTTVFNIYGSTIAQELEPIFAPIEFHSDIEKRTGGFRIDGHLELELEPIRNPVTGAPHRARIVLPEGFEFRQAEIASGTFNANGEIAMGRQKRYGALWRAAYGPYGIIEE | not soluble |
| QNLGAAVAILGGPGTVQGVVRFLQLTPERCLIEGTIDGLEPGLHGLHVHQYGDLTNNCNSCGNHFNPDGASHGGPQDSDRHRGDLGNVRADADGRAIFRMEDEQLKVWDVIGRSLIIDEGEDDLGRGGHPLSKITGNSGERLACGIIARSAGLF | soluble |
| MSFFKKLKEKISKQTDTVTEKFKQGLEKTRNSFADKVNDLVFRYRKVDEDFFEELEEILIGADVGVSTVMELIDQLKEEVQRRNIQDPREVQAVISEKLIEIYKGDSDFTNEVNMQKDGLTVVLFVGVNGVGKTTTIGKMAHKFKSEGKSVLLAAGDTFRAGAIEQLEVWGDRVGVEVIKQGSGSDPAAVMYDAVQAAKARNVDVLLCDTAGRLQNKVNLMKELEKVKRVIEREVPGAPHEVLLVIDATTGQNGLSQAKTFREATNVTGIVLTKLDGTAKGGIVLAIRNEMDVPVKFVGLGEQMDDLQQFDPEQYVYGLFANLVETEEV | not soluble |
| MGSKYSKATNSINDALSSSYLVPFESYRVPLVDLEEATNNFDHKFLIGHGVFGKVYKGVLRDGAKVALKRRTPESSQGIEEFETEIETLSFCRHPHLVSLIGFCDERNEMILIYKYMENGNLKRHLYGSDLPTMSMSWEQRLEICIGAARGLHYLHTRAIIHRDVKSINILLDENFVPKITDFGISKKGTELGQTHLSTVVKGTLGYIDPEYFIKGRLTEKSDVYSFGVVLFEVLCARSAIVQSLPREMVNLAEWAVESHNNGQLEQIVDPNLADKIRPESLRKFGDTAVKCLALSSEDRPSMGDVLWKLEYALRLQESVIHHHHHH | soluble |
| MSAITAPLPTLDDLATLTLSIKAWGRELGFQEVGISGLDLAEHEQHLQRWLDAGYHGEMDYMAAHGSKRSHPDELVPGTLRVVSLRMDYLPGDTEMAQRLTEPEKAYVSRYALGRDYHKLIRKRLQQLAERIQQAIGPFGFRAFVDSAPVLEKAIAEQAGLGWIGKNTLVLNRKAGSFFFLGELFVDIPLPVDAPHATEHCGRCTACLDICPTAAFVGPYVLDARRCISYLTIELKTAIPEELRPLIGNRVFGCDDCQIVCPWNRFARPTDQSDFQPRHNLDNAGLAELFLWDEEKFLGSTEGSPLRRAGYERWLRNLAVGLGNAPSTIPVIEALQARRDYPSELVREHVEWALQRHGVAPL | not soluble |
| GSHMKDYSLEIDAVMKAAQINDTNNFVQALMRWHFSKETGSPFWLGMREQLNFDPIKDVKTINDLRQFSDISHCLRQEPVANLVPQGLPADSHPQVYESGGTTGAPKYVVAYDAWIEALISWRMSGYQHRPGRPSGNTLAAIPTGPHIVGAINKERALRLGGMFFSIDIDPRWVKRSLSEGDTATVRKYTHHLVDQVQNTLMNQDIRFLVTTPPVLRELLKRPEVVLQMKQSLAQITLGGTELNLDEIKFIASEILPDCEFSASYGSTSALGVSRSLLITSESQQVIYDSFSPFITYDVVDSITAQTVEYGERGNVIVTHLSPWAFYPRVAERDTAIRLPGVSGFAGDRLADIEPLKISEGRKVIEGVY | soluble |
| MQHHGVTKCNITCSKMTSKIPVALLIHYQQNQASCGKRAIILETRQHRLFCADPKEQWVKDAMQHLDRQAAALTRNG | soluble |
